The results in this text go back to US20180092966A1 (CSL, published 2018).

Assay [1] has as its target T1, VWF-FP L984C mutant (albumin-fused von Willebrand Factor) (human).
T1 construct: Stably expressed in CHO cells with furin co-transfected; also called VWF-FP mutant L984C; Cys residue at VWF aa position 984; not shown: linker between VWF and albumin, made in analogy to WO 2009/156137
Nature of the assay: ELISA of co-expression supernatant: anti-VWF capture, 350 mM CaCl2 wash, anti-FVIII detection. As to the method: (§1) Cell culture supernatant samples (10 ml) from transient transfections were concentrated with Amicon Ultracell-30K (Millipore UFC903024; 3000 g centrifugation). FVIII covalently attached to VWF-FP in culture supernatant (concentrates) was determined by a standard ELISA. Briefly, microplates were incubated with 100 μL per well of the capture antibody (rabbit anti human VWF-IgG, Dako A0082 [Dako, Hamburg, Germany], diluted 1:2000 in buffer A [Sigma C3041, Sigma-Aldrich, Munich, Germany]) overnight at ambient temperature. After washing plates three times with buffer B (Sigma T9039), each well was incubated with 200 μL buffer C (Sigma T6789) for 1.5 hours at ambient temperature (blocking). After another three wash steps with buffer B, serial dilutions of the test sample in buffer B as well as serial dilutions of a control preparation of covalently linked FVIII-VWF-FP, (2.0-0.03 arbitrary U/ml in buffer B (we call these “arbitrary units” as they may not correspond to the standard FVIII units as determined using Standard Human Plasma); volumes per well: 100 μL) were incubated for 1.5 hours at ambient temperature. After three wash steps with buffer B, 200 μL of 350 mM CaCl₂ were added to each well and incubated for 1 hour at ambient temperature. CaCl₂ was removed (without washing) and additional 200 μl were added to each well and incubated further for 1 hour. After three wash steps with buffer B 100 μL of a 1:2 dilution in buffer B of the detection antibody (Detecting Antibody for FVIII:C, peroxidase labelled, Cedarlane CL20035K-D) were added to each well and incubated for 1 hour at ambient temperature. After three wash steps with buffer B, 100 μL of substrate solution (OUVF, Siemens Healthcare Diagnostics) were added per well and incubated for 15 minutes at ambient temperature in the dark. Addition of 100 μL undiluted stop dilution (OSFA, Siemens Healthcare Diagnostics) prepared the samples for reading in a suitable microplate reader at 450 nm wavelength. Concentrations of the test samples were then calculated using the standard curve with the control preparation.
On the technique in general: ELISA stands for enzyme-linked immunosorbent assay.

Assay [2] addresses T2, VWF-FP H817C mutant (albumin-fused von Willebrand Factor) (human).
T2 construct: Stably expressed in CHO cells with furin co-transfected; also called VWF-FP mutant H817C; Cys residue at VWF aa position 817; not shown: linker between VWF and albumin, made in analogy to WO 2009/156137
Described as above. As to the method: as §1

The target of assay [3] is T3, VWF-FP N1134C mutant (albumin-fused von Willebrand Factor) (human).
T3 construct: Stably expressed in CHO cells with furin co-transfected; also called VWF-FP mutant N1134C; Cys residue at VWF aa position 1134; not shown: linker between VWF and albumin, made in analogy to WO 2009/156137
The assay is described as above. Here is the method:
as §1

For assay [4], the target named is T4, VWF-FP E1015C mutant (albumin-fused von Willebrand Factor) (human).
T4 construct: Stably expressed in CHO cells with furin co-transfected; also called VWF-FP mutant E1015C; Cys residue at VWF aa position 1015; not shown: linker between VWF and albumin, made in analogy to WO 2009/156137
The assay is described as above. As to the method: as §1

Assay [5] addresses T5, VWF-FP K1116C mutant (albumin-fused von Willebrand Factor) (human).
T5 construct: Stably expressed in CHO cells with furin co-transfected; also called VWF-FP mutant K1116C; Cys residue at VWF aa position 1116; not shown: linker between VWF and albumin, made in analogy to WO 2009/156137
Described as above. As to the method: as §1

In assay [6] the target is T6, VWF-FP R768C mutant (albumin-fused von Willebrand Factor) (human).
T6 construct: Stably expressed in CHO cells with furin co-transfected; also called VWF-FP mutant R768C; Cys residue at VWF aa position 768; not shown: linker between VWF and albumin, made in analogy to WO 2009/156137
Described as above. Here is the method: as §1

Assay [7] addresses T1, VWF-FP L984C mutant (albumin-fused von …). Nature of the assay: covalent-FVIII ELISA over FVIII antigen ELISA.
In assay [8] the target is T2, VWF-FP H817C mutant (albumin-fused von …). Nature of the assay: covalent-FVIII ELISA over FVIII antigen ELISA.
Assay [9] deals with T3, VWF-FP N1134C mutant (albumin-fused von …). Nature of the assay: covalent-FVIII ELISA over FVIII antigen ELISA.
Assay [10] deals with T4, VWF-FP E1015C mutant (albumin-fused von …). In words: covalent-FVIII ELISA over FVIII antigen ELISA.
The target of assay [11] is T5, VWF-FP K1116C mutant (albumin-fused von …). Nature of the assay: covalent-FVIII ELISA over FVIII antigen ELISA.
For assay [12], the target named is T6, VWF-FP R768C mutant (albumin-fused von …). Nature of the assay: covalent-FVIII ELISA over FVIII antigen ELISA.
Assay [13] concerns the target T1, VWF-FP L984C mutant (albumin-fused von …). Nature of the assay: covalent-FVIII ELISA over FVIII activity assay.
The target in assay [14] is T2, VWF-FP H817C mutant (albumin-fused von …). Nature of the assay: covalent-FVIII ELISA over FVIII activity assay.
Assay [15] has as its target T3, VWF-FP N1134C mutant (albumin-fused von …). Nature of the assay: covalent-FVIII ELISA over FVIII activity assay.
The target in assay [16] is T4, VWF-FP E1015C mutant (albumin-fused von …). Nature of the assay: covalent-FVIII ELISA over FVIII activity assay.
Assay [17] has as its target T5, VWF-FP K1116C mutant (albumin-fused von …). In words: covalent-FVIII ELISA over FVIII activity assay.
Assay [18] concerns the target T6, VWF-FP R768C mutant (albumin-fused von …). In words: covalent-FVIII ELISA over FVIII activity assay.

T1 sequence (chain, as listed by the source L984C L984C): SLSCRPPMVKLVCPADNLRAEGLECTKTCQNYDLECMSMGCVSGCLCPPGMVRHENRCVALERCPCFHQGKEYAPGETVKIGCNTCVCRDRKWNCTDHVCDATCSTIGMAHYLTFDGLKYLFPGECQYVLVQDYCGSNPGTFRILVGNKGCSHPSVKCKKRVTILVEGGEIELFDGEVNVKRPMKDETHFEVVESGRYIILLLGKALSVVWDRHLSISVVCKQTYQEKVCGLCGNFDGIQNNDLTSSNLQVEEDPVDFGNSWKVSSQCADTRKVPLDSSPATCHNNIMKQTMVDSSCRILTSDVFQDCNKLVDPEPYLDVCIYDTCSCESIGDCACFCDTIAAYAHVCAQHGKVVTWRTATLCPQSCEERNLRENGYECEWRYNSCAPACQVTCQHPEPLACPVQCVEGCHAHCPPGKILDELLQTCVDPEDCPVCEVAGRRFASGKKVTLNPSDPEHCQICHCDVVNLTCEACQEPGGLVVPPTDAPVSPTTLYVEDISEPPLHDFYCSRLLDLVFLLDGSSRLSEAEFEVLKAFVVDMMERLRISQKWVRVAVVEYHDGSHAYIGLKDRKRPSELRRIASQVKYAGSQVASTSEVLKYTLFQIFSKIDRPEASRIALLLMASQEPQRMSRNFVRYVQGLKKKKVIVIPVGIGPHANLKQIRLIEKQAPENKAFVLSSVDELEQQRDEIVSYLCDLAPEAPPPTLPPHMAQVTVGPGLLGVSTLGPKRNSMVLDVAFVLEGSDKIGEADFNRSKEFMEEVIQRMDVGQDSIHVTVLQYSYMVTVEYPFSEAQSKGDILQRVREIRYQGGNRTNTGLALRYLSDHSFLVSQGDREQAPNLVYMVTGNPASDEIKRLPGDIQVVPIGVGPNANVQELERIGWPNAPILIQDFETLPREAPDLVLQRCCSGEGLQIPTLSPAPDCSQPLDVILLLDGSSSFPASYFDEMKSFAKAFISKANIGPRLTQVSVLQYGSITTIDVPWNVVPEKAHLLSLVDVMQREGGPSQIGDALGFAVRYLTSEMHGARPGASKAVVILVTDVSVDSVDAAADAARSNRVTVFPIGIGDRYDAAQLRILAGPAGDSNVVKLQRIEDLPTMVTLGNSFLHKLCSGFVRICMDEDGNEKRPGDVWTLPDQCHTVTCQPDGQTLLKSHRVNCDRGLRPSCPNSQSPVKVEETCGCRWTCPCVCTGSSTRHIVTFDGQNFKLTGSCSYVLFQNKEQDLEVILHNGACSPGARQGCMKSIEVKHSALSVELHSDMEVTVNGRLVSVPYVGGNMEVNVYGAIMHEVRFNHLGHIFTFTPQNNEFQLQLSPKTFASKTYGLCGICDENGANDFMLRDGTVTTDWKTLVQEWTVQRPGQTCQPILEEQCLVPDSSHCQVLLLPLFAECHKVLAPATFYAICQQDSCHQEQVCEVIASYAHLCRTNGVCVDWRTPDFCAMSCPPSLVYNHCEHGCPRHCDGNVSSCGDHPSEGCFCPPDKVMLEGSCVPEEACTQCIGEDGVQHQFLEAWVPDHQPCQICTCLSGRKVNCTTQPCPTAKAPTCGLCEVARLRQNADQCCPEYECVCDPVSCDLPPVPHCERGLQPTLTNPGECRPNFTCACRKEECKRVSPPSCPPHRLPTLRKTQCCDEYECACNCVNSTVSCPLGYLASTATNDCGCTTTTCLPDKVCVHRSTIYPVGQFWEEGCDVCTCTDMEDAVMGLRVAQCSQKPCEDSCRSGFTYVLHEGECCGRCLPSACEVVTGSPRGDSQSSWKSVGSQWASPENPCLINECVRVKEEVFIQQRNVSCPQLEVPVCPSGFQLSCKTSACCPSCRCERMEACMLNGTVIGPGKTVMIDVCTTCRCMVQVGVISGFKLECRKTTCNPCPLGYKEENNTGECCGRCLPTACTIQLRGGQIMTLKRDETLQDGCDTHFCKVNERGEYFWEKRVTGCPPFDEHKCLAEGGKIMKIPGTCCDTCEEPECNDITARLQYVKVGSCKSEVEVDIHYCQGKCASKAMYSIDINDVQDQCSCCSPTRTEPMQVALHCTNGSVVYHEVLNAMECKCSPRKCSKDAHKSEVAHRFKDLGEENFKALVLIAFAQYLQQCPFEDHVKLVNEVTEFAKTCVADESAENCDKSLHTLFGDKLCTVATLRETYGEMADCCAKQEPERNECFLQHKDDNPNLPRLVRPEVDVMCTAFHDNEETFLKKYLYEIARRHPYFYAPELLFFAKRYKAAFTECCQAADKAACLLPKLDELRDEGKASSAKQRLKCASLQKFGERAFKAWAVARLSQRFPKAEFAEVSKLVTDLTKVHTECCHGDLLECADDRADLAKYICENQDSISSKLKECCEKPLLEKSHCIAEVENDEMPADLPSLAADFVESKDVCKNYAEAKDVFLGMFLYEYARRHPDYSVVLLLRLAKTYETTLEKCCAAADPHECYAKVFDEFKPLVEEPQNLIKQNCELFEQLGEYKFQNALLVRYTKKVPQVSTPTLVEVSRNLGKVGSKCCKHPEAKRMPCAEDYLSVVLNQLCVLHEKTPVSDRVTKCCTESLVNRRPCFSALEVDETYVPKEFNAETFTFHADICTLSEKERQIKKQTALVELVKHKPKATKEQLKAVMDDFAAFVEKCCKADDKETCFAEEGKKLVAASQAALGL
T3 sequence (chain, as listed by the source N1134C N1134C): as the sequence (chain, as listed by the source L984C L984C) above, with C221L, N371C counted along it
T5 sequence (chain, as listed by the source K1116C K1116C): as the sequence (chain, as listed by the source L984C L984C) above, with C221L, K353C counted along it
T2 sequence (chain, as listed by the source H817C H817C): as the sequence (chain, as listed by the source L984C L984C) above, with H54C, C221L counted along it
T4 sequence (chain, as listed by the source E1015C E1015C): as the sequence (chain, as listed by the source L984C L984C) above, with C221L, E252C counted along it
T6 sequence (chain, as listed by the source R768C R768C): as the sequence (chain, as listed by the source L984C L984C) above, with R5C, C221L counted along it

B1: Factor VIII SingleChain P1688C mutant (other)
chain: ATRRYYLGAVELSWDYMQSDLGELPVDARFPPRVPKSFPFNTSVVYKKTLFVEFTDHLFNIAKPRPPWMGLLGPTIQAEVYDTVVITLKNMASHPVSLHAVGVSYWKASEGAEYDDQTSQREKEDDKVFPGGSHTYVWQVLKENGPMASDPLCLTYSYLSHVDLVKDLNSGLIGALLVCREGSLAKEKTQTLHKFILLFAVFDEGKSWHSETKNSLMQDRDAASARAWPKMHTVNGYVNRSLPGLIGCHRKSVYWHVIGMGTTPEVHSIFLEGHTFLVRNHRQASLEISPITFLTAQTLLMDLGQFLLFCHISSHQHDGMEAYVKVDSCPEEPQLRMKNNEEAEDYDDDLTDSEMDVVRFDDDNSPSFIQIRSVAKKHPKTWVHYIAAEEEDWDYAPLVLAPDDRSYKSQYLNNGPQRIGRKYKKVRFMAYTDETFKTREAIQHESGILGPLLYGEVGDTLLIIFKNQASRPYNIYPHGITDVRPLYSRRLPKGVKHLKDFPILPGEIFKYKWTVTVEDGPTKSDPRCLTRYYSSFVNMERDLASGLIGPLLICYKESVDQRGNQIMSDKRNVILFSVFDENRSWYLTENIQRFLPNPAGVQLEDPEFQASNIMHSINGYVFDSLQLSVCLHEVAYWYILSIGAQTDFLSVFFSGYTFKHKMVYEDTLTLFPFSGETVFMSMENPGLWILGCHNSDFRNRGMTALLKVSSCDKNTGDYYEDSYEDISAYLLSKNNAIEPRSFSQNSRHRSTRQKQFNATTIPENTTLQSDQEEIDYDDTISVEMKKEDFDIYDEDENQSCRSFQKKTRHYFIAAVERLWDYGMSSSPHVLRNRAQSGSVPQFKKVVFQEFTDGSFTQPLYRGELNEHLGLLGPYIRAEVEDNIMVTFRNQASRPYSFYSSLISYEEDQRQGAEPRKNFVKPNETKTYFWKVQHHMAPTKDEFDCKAWAYFSDVDLEKDVHSGLIGPLLVCHTNTLNPAHGRQVTVQEFALFFTIFDETKSWYFTENMERNCRAPCNIQMEDPTFKENYRFHAINGYIMDTLPGLVMAQDQRIRWYLLSMGSNENIHSIHFSGHVFTVRKKEEYKMALYNLYPGVFETVEMLPSKAGIWRVECLIGEHLHAGMSTLFLVYSNKCQTPLGMASGHIRDFQITASGQYGQWAPKLARLHYSGSINAWSTKEPFSWIKVDLLAPMIIHGIKTQGARQKFSSLYISQFIIMYSLDGKKWQTYRGNSTGTLMVFFGNVDSSGIKHNIFNPPIIARYIRLHPTHYSIRSTLRMELMGCDLNSCSMPLGMESKAISDAQITASSYFTNMFATWSPSKARLHLQGRSNAWRPQVNNPKEWLQVDFQKTMKVTGVTTQGVKSLLTSMYVKEFLISSSQDGHQWTLFFQNGKVKVFQGNQDSFTPVVNSLDPPLLTRYLRIHPQSWVHQIALRMEVLGCEAQDLY
notes: Single-chain FVIII with partial B-domain deletion; also called FVIII-SC P1688C; Cys residue at FVIII aa position 1688
On to B1, for which the “covalent FVIII” value came to 1900 amU/ml in assay [1]; 367 amU/ml in [2]; 650 amU/ml in assay [3]; 1080 amU/ml in assay [4]; 666 amU/ml in [5]; 2060 amU/ml in assay [6]. The “ratio covalent FVIII/Total FVIII antigen” value in assay [7] worked out at 0.96; in assay [8] it was 0.29; in assay [9], 6.11; in assay [10], 0.53; in assay [11], 1.89; in assay [12], 2.13. Also, the “ratio covalent FVIII/Total FVIII activity” value is 2.45 in [13]; 1.89 in [14]; 1.87 in assay [15]; 1.59 in [16]; 0.61 in [17]; 18.8 in [18].
